Target: T1, Human FAP expressed on the cell surface (WI38, CHO-FAP1.9, U87MG cells) (human, UniProt Q12884 1-760)
T1 construct: whole, on cells; Endogenous on WI38 and U87MG cells; from a human FAP cDNA (OriGene) in CHO-FAP1.9 cells; also called hFAP; FAP+ cells
T1 sequence (looked up): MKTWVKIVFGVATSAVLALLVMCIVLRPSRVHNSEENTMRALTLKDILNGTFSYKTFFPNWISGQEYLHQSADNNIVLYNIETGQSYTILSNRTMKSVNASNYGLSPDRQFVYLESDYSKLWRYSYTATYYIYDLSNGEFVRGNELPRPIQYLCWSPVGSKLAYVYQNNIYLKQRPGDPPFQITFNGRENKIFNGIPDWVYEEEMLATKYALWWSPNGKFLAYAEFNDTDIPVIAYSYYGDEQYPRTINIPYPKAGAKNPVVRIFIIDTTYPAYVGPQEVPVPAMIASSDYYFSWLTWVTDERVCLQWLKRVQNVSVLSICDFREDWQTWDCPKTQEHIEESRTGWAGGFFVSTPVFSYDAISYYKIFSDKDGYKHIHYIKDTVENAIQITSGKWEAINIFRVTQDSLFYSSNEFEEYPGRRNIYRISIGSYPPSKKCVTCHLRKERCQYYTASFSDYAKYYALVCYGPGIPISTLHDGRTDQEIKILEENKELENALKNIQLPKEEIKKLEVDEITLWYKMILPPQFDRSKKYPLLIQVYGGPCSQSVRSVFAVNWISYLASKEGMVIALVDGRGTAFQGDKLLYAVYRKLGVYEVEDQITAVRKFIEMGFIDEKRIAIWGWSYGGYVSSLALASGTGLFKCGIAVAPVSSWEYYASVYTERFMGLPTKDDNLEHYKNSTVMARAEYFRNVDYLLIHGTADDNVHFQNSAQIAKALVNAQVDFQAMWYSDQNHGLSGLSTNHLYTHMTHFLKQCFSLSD
Experiment: FACS on U87MG cells (FAP on the cell surface), His-tag detected with Penta-His AF647 conjugate, median fluorescence intensity
Experimental: In order to determine whether the fusion of a biologically active molecule to a FAP-specific ankyrin repeat domain affects the ability of the molecule to specifically recognize and bind to FAP expressed on the surface of cells, the binding of selected ankyrin repeat fusion proteins to FAP-expressing cells was tested. U87 MG cells and WI38 cells are known to express FAP on the cell surface and they were chosen as representative cells for these experiments. FAP expression on the U87 MG and WI38 cells was confirmed by FACS analysis (data not shown).
Using multi-well plates, 40,000 cells (either U87MG or WI38) were added per well in 50 μl of PBS. 50 μl of appropriate dilutions (2× dilution steps) of ankyrin repeat fusion protein (DARPin® protein #40 or DARPin® protein #41) was then added to the cells and incubated for 30 minutes on ice. After the ankyrin repeat fusion protein-binding reaction, cells were washed twice with PBS. Direct immunofluorescent detection of the His-tagged ankyrin repeat fusion proteins using Penta-His AF647 conjugate (QIAgen) and determination of live cells using LIVE/DEAD™ Fixable Green Dead Cell Stain Kit (ThermoFisher) were then performed together in one step. […] Acquisition and FACS analysis, including the determination of median fluorescence intensity (MFI), were done within 5 days after staining using an AttuneNxT instrument. […]

EC50 (read off the curve): ~2 nM
B1: DARPin® protein #41 (designed binder)
chain: MRGSHHHHHHGSDLGKKLLEAARAGQDDEVRELLKAGADVNAKDYFSHTPLHLAARNGHLKIVEVLLKAGADVNAKDFAGKTPLHLAANEGHLEIVEVLLKAGADVNAQDIFGKTPADIAADAGHEDIAEVLQKAAGSPTPTPTTPTPTPTTPTPTPTGSDLGEKLLVAALYGQDDEVRILLAAGADVNAKDQWGLTPLHKAALQGHLEIVEVLLKAGADVNAKDERGHTPLHWAARFGHLEIVEVLLKAGADVNAQDQKGYTPADLAALWGHEDIAEVLQKAA
notes: Fusion of a serum albumin-specific and a FAP-specific ankyrin repeat domain

Source: patent US20220242973A1 (Molecular Partners, published 2022)
